Measured values: the FLAb antibody collection (doi:10.7554/elife.23156)

B1: scFv; the commonest letter at each place (parent)
chain 1: EVKLDETGGGLVQPGRPMKLSCVASGFTFSDYWMNWVRQSPEKGLEWVAQIRNKPYNYETYYSDSVKGRFTISRDDSKSSVYLQMNNLRVEDMGIYYCTGSYYGMDYWGQGTSVTVS
chain 2: DVVMTQTPLSLPVSLGDQASISCRSSQSLVHSNGNTYLRWYLQKPGQSPKVLIYKVSNRFSGVPDRFSGSGSGTDFTLKISRVEAEDLGVYFCSQSTHVPWTFGGGTKLEIK

Experiments:
fluorescein = variants of: B1; experiment: Kd (Tite-Seq); conditions: with fluorescein; format: scFv 4-4-20, heavy + light
[1] = variants of: B1; experiment: yeast surface expression (ratio to wild type); higher = more expressed; conditions: format: scFv 4-4-20, heavy + light

Row | Variant | Kd (fluorescein) | yeast surface expression [1]
1 | chain 1 G100L G104Q W108M | ≥ 10 µM | 0.343
2 | chain 1 G100D S101I | ≥ 10 µM | 0.0999
3 | chain 1 G100D S101W | ≥ 10 µM | 0.171
4 | chain 1 F29W M34W | ≥ 10 µM | 0.913
5 | chain 1 G100D Y107V | ≥ 10 µM | 0.406
6 | chain 1 G100N S101C | ≥ 10 µM | 0.234
7 | chain 1 G100N S101I | ≥ 10 µM | 0.189
8 | chain 1 G100R S101I | ≥ 10 µM | 0.352
9 | chain 1 G100R S101H | ≥ 10 µM | 0.282
10 | chain 1 G100E G104I | ≥ 10 µM | 0.281
11 | chain 1 F29Y V37L | ≥ 10 µM | 0.669
12 | chain 1 G100M M105P Y107D | ≥ 10 µM | 0.325
13 | chain 1 G100Q Y107C | ≥ 10 µM | 0.176
14 | chain 1 G100H W108D | ≥ 10 µM | 0.321
15 | chain 1 G100I Y103C M105Y | ≥ 10 µM | 0.694
16 | chain 1 F29Y M34K | ≥ 10 µM | 0.646
17 | chain 1 F29Y M34E | ≥ 10 µM | 0.542
18 | chain 1 G100M M105F | ≥ 10 µM | 0.769
19 | chain 1 G100K Y107V | ≥ 10 µM | 0.3
20 | chain 1 G100L D106L | ≥ 10 µM | 0.395
21 | chain 1 G100R W108C | ≥ 10 µM | 0.246
22 | chain 1 G100R W108N | ≥ 10 µM | 0.348
23 | chain 1 G100R W108Y | ≥ 10 µM | 0.478
24 | chain 1 F29Y Y32S | ≥ 10 µM | 0.95
25 | chain 1 F29Y Y32R | ≥ 10 µM | 0.761

Row | Variant | Kd (fluorescein) | yeast surface expression [1]
26 | chain 1 G100N G104F | ≥ 10 µM | 0.321
27 | chain 1 G100N G104W | ≥ 10 µM | 0.281
28 | chain 1 G100N G104N | ≥ 10 µM | 0.347
29 | chain 1 G100N G104Y | ≥ 10 µM | 0.185
30 | chain 1 G100P W108M | ≥ 10 µM | 0.572
31 | chain 1 G100N D106N | ≥ 10 µM | 0.287
32 | chain 1 G100N D106I | ≥ 10 µM | 0.203
33 | chain 1 G100N D106Y | ≥ 10 µM | 0.146
34 | chain 1 G100N M105Y | ≥ 10 µM | 0.462
35 | chain 1 G100N M105T | ≥ 10 µM | 0.413
36 | chain 1 F29V N35V | ≥ 10 µM | 0.239
37 | chain 1 F29V N35D | ≥ 10 µM | 0.862
38 | chain 1 G100P G104H | ≥ 10 µM | 0.68
39 | chain 1 G100P G104I | ≥ 10 µM | 0.337
40 | chain 1 G100D G109N | ≥ 10 µM | 0.118
41 | chain 1 G100D G109H | ≥ 10 µM | 0.602
42 | chain 1 G100D G109T | ≥ 10 µM | 0.21
43 | chain 1 G100D G109I | ≥ 10 µM | 0.553
44 | chain 1 G100D G109V | ≥ 10 µM | 0.136
45 | chain 1 G100I W108K | ≥ 10 µM | 0.698
46 | chain 1 G100I W108R | ≥ 10 µM | 0.781
47 | chain 1 G100P D106M | ≥ 10 µM | 0.537
48 | chain 1 G100P D106A | ≥ 10 µM | 0.627
49 | chain 1 G100M S101E W108V | ≥ 10 µM | 0.515
50 | chain 1 G100D W108R | ≥ 10 µM | 0.146

The next lines start with results.

Row | Kd (fluorescein) | Variant | yeast surface expression [1]
51 | ≥ 10 µM | chain 1 G100Q W108N | 0.289
52 | ≥ 10 µM | chain 1 G100Q W108R | 0.232
53 | ≥ 10 µM | chain 1 G100R Y102I | 0.483
54 | ≥ 10 µM | chain 1 G100Q Y103R D106L | 0.235
55 | 4.6 µM | chain 1 G100K G104C | 0.182
56 | ≥ 10 µM | chain 1 G100K G104H | 0.322
57 | 5.96 µM | chain 1 F29V V37G | 0.65
58 | ≥ 10 µM | chain 1 G100M S101I G104T | 0.359
59 | ≥ 10 µM | chain 1 F29V M34E | 0.715
60 | 2.88 µM | chain 1 G100C Y107S | 0.64
61 | ≥ 10 µM | chain 1 G100C Y107E | 0.6
62 | ≥ 10 µM | chain 1 G100P M105S G109M | 0.234
63 | ≥ 10 µM | chain 1 G100D M105Y | 0.228
64 | ≥ 10 µM | chain 1 G100K G109V | 0.188
65 | ≥ 10 µM | chain 1 G100M Y107T | 0.729
66 | ≥ 10 µM | chain 1 G100M Y107G | 0.575
67 | ≥ 10 µM | chain 1 G100I G104W | 0.449
68 | ≥ 10 µM | chain 1 G100Q S101Q | 0.263
69 | 0.0221 µM | chain 1 F29W D31H | 0.626
70 | ≥ 10 µM | chain 1 F29W D31F | 0.475
71 | 5.37 µM | chain 1 F29W D31G | 0.567
72 | ≥ 10 µM | chain 1 G100E D106Q | 0.172

Row | Kd (fluorescein) | Variant | yeast surface expression [1]
73 | ≥ 10 µM | chain 1 G100E D106H | 0.289
74 | ≥ 10 µM | chain 1 G100E D106M | 0.17
75 | ≥ 10 µM | chain 1 G100E Y102G | 0.488
76 | ≥ 10 µM | chain 1 G100C D106G | 0.553
77 | 0.00343 µM | chain 1 G100C D106N | 0.768
78 | ≥ 10 µM | chain 1 G100C D106Q | 0.754
79 | ≥ 10 µM | chain 1 F29Y D31E W33G | 1.63
80 | ≥ 10 µM | chain 1 G100H Y107H | 0.348
81 | ≥ 10 µM | chain 1 G100R G109C | 0.173
82 | ≥ 10 µM | chain 1 G100D D106Q | 0.17
83 | ≥ 10 µM | chain 1 G100D D106W | 0.254
84 | ≥ 10 µM | chain 1 G100E Y107H | 0.501
85 | ≥ 10 µM | chain 1 F29Y D31P | 0.888
86 | ≥ 10 µM | chain 1 G100M S101V | 0.549
87 | ≥ 10 µM | chain 1 G100Q G104E | 0.38
88 | 0.00279 µM | chain 1 G100C Y102A | 1.47
89 | ≥ 10 µM | chain 1 G100N G109H | 0.236
90 | ≥ 10 µM | chain 1 G100N G109R | 0.283
91 | ≥ 10 µM | chain 1 F29W N35G | 0.71
92 | ≥ 10 µM | chain 1 G100Q Y107L G109E | 0.226
93 | ≥ 10 µM | chain 1 G100D M105W W108Y | 0.168
94 | 1.47 µM | chain 1 F29V D31E | 0.753

Row | Kd (fluorescein) | Variant | yeast surface expression [1]
95 | ≥ 10 µM | chain 1 G100R G104Q | 0.217
96 | ≥ 10 µM | chain 1 G100R G104S | 0.28
97 | ≥ 10 µM | chain 1 G100A D106W | 0.393
98 | ≥ 10 µM | chain 1 G100H Y103Q G109A | 0.293
99 | ≥ 10 µM | chain 1 G100M Y102V | 0.856
100 | 0.0562 µM | chain 1 F29W | 0.661
101 | 0.00967 µM | chain 1 F29V | 0.929
102 | 0.000783 µM | chain 1 F29Y | 0.978
103 | ≥ 10 µM | chain 1 G100E M105D | 0.296
104 | ≥ 10 µM | chain 1 G100F Y107I | 0.947
105 | ≥ 10 µM | chain 1 G100F Y107T | 0.842
106 | ≥ 10 µM | chain 1 G100A G104L D106M | 0.244
107 | ≥ 10 µM | chain 1 G100E W108G G109H | 0.242
108 | ≥ 10 µM | chain 1 F29V W33N | 0.722
109 | 0.185 µM | chain 1 F29V Y32W M34W | 1.07
110 | 0.00194 µM | chain 1 F29Y V37I | 0.9
111 | 0.228 µM | chain 1 F29Y V37P | 2.26
112 | 0.00746 µM | chain 1 G100H W108F | 0.392
113 | 0.205 µM | chain 1 F29Y Y32H | 0.756
114 | 0.00708 µM | chain 1 F29Y Y32A | 1.02
115 | 0.0245 µM | chain 1 G100A M105Q | 1.15
116 | 0.00468 µM | chain 1 G100I W108M | 0.946
